# Values of other authors in PMC3157396, “Molecular Basis for the Recognition of Adenomatous Polyposis Coli by the Discs Large 1 Protein” (PLoS ONE, 2011).
# B1: Kv1.4 potassium channel: Kv1.4 potassium channel (protein, UniProt P22459 1-653, looked up)
# Potassium voltage-gated …: MEVAMVSAESSGCNSHMPYGYAAQARARERERLAHSRAAAAAAVAAATAAVEGSGGSGGGSHHHHQSRGACTSHDPQSSRGSRRRRRQRSEKKKAHYRQSSFPHCSDLMPSGSEEKILRELSEEEEDEEEEEEEEEEGRFYYSEDDHGDECSYTDLLPQDEGGGGYSSVRYSDCCERVVINVSGLRFETQMKTLAQFPETLLGDPEKRTQYFDPLRNEYFFDRNRPSFDAILYYYQSGGRLKRPVNVPFDIFTEEVKFYQLGEEALLKFREDEGFVREEEDRALPENEFKKQIWLLFEYPESSSPARGIAIVSVLVILISIVIFCLETLPEFRDDRDLVMALSAGGHGGLLNDTSAPHLENSGHTIFNDPFFIVETVCIVWFSFEFVVRCFACPSQALFFKNIMNIIDIVSILPYFITLGTDLAQQQGGGNGQQQQAMSFAILRIIRLVRVFRIFKLSRHSKGLQILGHTLRASMRELGLLIFFLFIGVILFSSAVYFAEADEPTTHFQSIPDAFWWAVVTMTTVGYGDMKPITVGGKIVGSLCAIAGVLTIALPVPVIVSNFNYFYHRETENEEQTQLTQNAVSCPYLPSNLLKKFRSSTSSSLGDKSEYLEMEEGVKESLCAKEEKCQGKGDDSETDKNNCSNAKAVETDV
# Test system: PDZ1 and PDZ2 domains of PSD-95
# Source text: The 3D structures of the three PDZ domains of DLG1 have been determined in the free forms [13]–[15]. They share very similar structures, and the ligand binding pockets are also conserved. […] The residues in the β2/β3 loop ...
molecule,measurement,value
B1,change of binding affinity on deletion of six residues from the β2/β3 loops (in words),decreases the binding affinity
